According to patent US20210246166A1 (Bayer, published 2021):
Numbered stars: 1 amine (or outer) side, 2 acyl side, 3 side chain; on linkers, the order of the positions; unused ones are H or OH. Bridge positions count the residues as written; N and C are the ends. Square brackets hold non-standard residues; d marks the D form. Ends that are not written are not given here. TTDS = 1,13-diamino-4,7,10-trioxatridecan-succinamic acid, O=C(CCC(=O)[*:2])NCCCOCCOCCOCCCN[*:1]; Pro(cis-4-CF3) = O=C(O)[C@@H]1C[C@H](C(F)(F)F)CN1; Oic = O=C(O)[C@@H]1C[C@@H]2CCCC[C@@H]2N1; NMeI = CC[C@H](C)[C@H](NC)C(=O)O; tBuAla = CC(C)(C)C[C@H](N)C(=O)O; PEG4 = NCCOCCOCCOCCOCCC(=O)O; Pen = CC(C)(S)[C@H](N)C(=O)O; NMeC = CN[C@@H](CS)C(=O)O; NMeA = CN[C@@H](C)C(=O)O; Orn = NCCC[C@H](N)C(=O)O; Sar = CNCC(=O)O

T1: recombinant human MASP1 active protease (amino acids 297-699, C-terminal His Tag) (human, UniProt P48740 297-699)
T1 sequence: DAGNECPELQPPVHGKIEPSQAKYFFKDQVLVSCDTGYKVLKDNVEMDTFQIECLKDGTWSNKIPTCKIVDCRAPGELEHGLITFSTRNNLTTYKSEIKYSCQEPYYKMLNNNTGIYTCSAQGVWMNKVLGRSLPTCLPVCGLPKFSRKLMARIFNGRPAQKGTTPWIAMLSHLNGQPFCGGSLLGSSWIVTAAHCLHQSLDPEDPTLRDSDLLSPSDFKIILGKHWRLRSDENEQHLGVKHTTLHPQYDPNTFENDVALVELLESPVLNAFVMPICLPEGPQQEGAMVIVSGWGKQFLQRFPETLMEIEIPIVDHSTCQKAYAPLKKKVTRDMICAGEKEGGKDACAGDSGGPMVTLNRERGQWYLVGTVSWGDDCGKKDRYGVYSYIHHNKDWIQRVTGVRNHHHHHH


Experiments:
[1] = target: T1, recombinant human MASP1 active protease …; test: cell-based or functional assay
[2] = target: recombinant human MASP2 active protease (amino acids 297-686, C-terminal His Tag) (human, UniProt O00187 297-686); test: cell-based or functional assay
Sequence of recombinant human MASP2 active protease (amino acids 297-686, C-terminal His Tag) (O00187 other isoform, or with tags, fused parts or gaps limits assumed): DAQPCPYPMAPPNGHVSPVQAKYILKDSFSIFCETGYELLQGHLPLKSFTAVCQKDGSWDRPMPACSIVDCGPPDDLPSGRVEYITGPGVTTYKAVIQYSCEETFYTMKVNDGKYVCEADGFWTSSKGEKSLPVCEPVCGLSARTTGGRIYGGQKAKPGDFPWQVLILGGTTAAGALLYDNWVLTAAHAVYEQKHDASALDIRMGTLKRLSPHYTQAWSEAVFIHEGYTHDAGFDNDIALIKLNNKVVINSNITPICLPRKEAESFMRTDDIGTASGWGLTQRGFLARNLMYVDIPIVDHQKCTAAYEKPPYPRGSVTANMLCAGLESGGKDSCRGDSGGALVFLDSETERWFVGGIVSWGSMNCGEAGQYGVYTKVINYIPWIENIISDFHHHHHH

human MASP1 IC50 [1] [nM] | human MASP2 IC50 [2] [nM] | Binder
3.2 | 79 | [Sar]ICSRSLP[Oic]I[Pen]IP[PEG4]-NH2 (disulfide 3-11; N-terminus assumed; SMILES CC[C@H](C)[C@H](NC(=O)CNC)C(=O)N[C@H]1CSSC(C)(C)[C@@H](C(=O)N[C@H](C(=O)N2CCC[C@H]2C(=O)NCCOCCOCCOCCOCCC(N)=O)[C@@H](C)CC)NC(=O)[C@H]([C@@H](C)CC)NC(=O)[C@@H]2C[C@@H]3CCCC[C@@H]3N2C(=O)[C@@H]2CCCN2C(=O)[C@H](CC(C)C)NC(=O)[C@H](CO)NC(=O)[C@H](CCCNC(=N)N)NC(=O)[C@H](CO)NC1=O) [((N-Me)G)-IC+SRSLP-(Oic)-I-(Pen)+IP-(PEG3(16 atoms))-NH2]
1.2 | 620 | A[NMeI]CSRS[tBuAla]PPI[NMeC]IPD-NH2 (disulfide 3-11; N-terminus assumed; SMILES CC[C@H](C)[C@@H]1NC(=O)[C@@H]2CCCN2C(=O)[C@@H]2CCCN2C(=O)[C@H](CC(C)(C)C)NC(=O)[C@H](CO)NC(=O)[C@H](CCCNC(=N)N)NC(=O)[C@H](CO)NC(=O)[C@@H](NC(=O)[C@H]([C@@H](C)CC)N(C)C(=O)[C@H](C)N)CSSC[C@@H](C(=O)N[C@H](C(=O)N2CCC[C@H]2C(=O)N[C@@H](CC(=O)O)C(N)=O)[C@@H](C)CC)N(C)C1=O) [A-((N-Me)I)-C+SRS-((tBu)A)-PPI-((N-Me)C)+IPD-NH2]
3.2 | 93 | [Orn]ICSRS[tBuAla]PPI[Pen]IP-NH2 (disulfide 3-11; N-terminus assumed; SMILES CC[C@H](C)[C@H](NC(=O)[C@@H](N)CCCN)C(=O)N[C@H]1CSSC(C)(C)[C@@H](C(=O)N[C@H](C(=O)N2CCC[C@H]2C(N)=O)[C@@H](C)CC)NC(=O)[C@H]([C@@H](C)CC)NC(=O)[C@@H]2CCCN2C(=O)[C@@H]2CCCN2C(=O)[C@H](CC(C)(C)C)NC(=O)[C@H](CO)NC(=O)[C@H](CCCNC(=N)N)NC(=O)[C@H](CO)NC1=O) [(Orn)-IC+SRS-((tBu)A)-PPI-(Pen)+IP-NH2]
3.3 | 140 | AICSRSLP[Oic]I[Pen]IPQ-NH2 (disulfide 3-11; N-terminus assumed; SMILES CC[C@H](C)[C@H](NC(=O)[C@H](C)N)C(=O)N[C@H]1CSSC(C)(C)[C@@H](C(=O)N[C@H](C(=O)N2CCC[C@H]2C(=O)N[C@@H](CCC(N)=O)C(N)=O)[C@@H](C)CC)NC(=O)[C@H]([C@@H](C)CC)NC(=O)[C@@H]2C[C@@H]3CCCC[C@@H]3N2C(=O)[C@@H]2CCCN2C(=O)[C@H](CC(C)C)NC(=O)[C@H](CO)NC(=O)[C@H](CCCNC(=N)N)NC(=O)[C@H](CO)NC1=O) [AIC+SRSLP-(Oic)-I-(Pen)+IPQ-NH2]
3.2 | 1600 | AICSRS[tBuAla]P[Pro(cis-4-CF3)]I[NMeC]IPD-NH2 (disulfide 3-11; N-terminus assumed; SMILES CC[C@H](C)[C@H](NC(=O)[C@H](C)N)C(=O)N[C@H]1CSSC[C@@H](C(=O)N[C@H](C(=O)N2CCC[C@H]2C(=O)N[C@@H](CC(=O)O)C(N)=O)[C@@H](C)CC)N(C)C(=O)[C@H]([C@@H](C)CC)NC(=O)[C@@H]2C[C@H](C(F)(F)F)CN2C(=O)[C@@H]2CCCN2C(=O)[C@H](CC(C)(C)C)NC(=O)[C@H](CO)NC(=O)[C@H](CCCNC(=N)N)NC(=O)[C@H](CO)NC1=O) [AIC+SRS-((tBu)A)-P-((4-CF3)P)-I-((N-Me)C)+IPD-NH2]
3.4 | 87 | [Sar]ICSRSLP[Oic]I[Pen]IP[TTDS]-NH2 (disulfide 3-11; N-terminus assumed; SMILES CC[C@H](C)[C@H](NC(=O)CNC)C(=O)N[C@H]1CSSC(C)(C)[C@@H](C(=O)N[C@H](C(=O)N2CCC[C@H]2C(=O)NCCCOCCOCCOCCCNC(=O)CCC(N)=O)[C@@H](C)CC)NC(=O)[C@H]([C@@H](C)CC)NC(=O)[C@@H]2C[C@@H]3CCCC[C@@H]3N2C(=O)[C@@H]2CCCN2C(=O)[C@H](CC(C)C)NC(=O)[C@H](CO)NC(=O)[C@H](CCCNC(=N)N)NC(=O)[C@H](CO)NC1=O) [((N-Me)G)-IC+SRSLP-(Oic)-I-(Pen)+IP-(TTDS)-NH2]

More lines, now with the values behind:

Binder | human MASP1 IC50 [1] [nM] | human MASP2 IC50 [2] [nM]
[NMeA]ICSRS[tBuAla]PPI[Pen]IP-NH2 (disulfide 3-11; N-terminus assumed; SMILES CC[C@H](C)[C@H](NC(=O)[C@H](C)NC)C(=O)N[C@H]1CSSC(C)(C)[C@@H](C(=O)N[C@H](C(=O)N2CCC[C@H]2C(N)=O)[C@@H](C)CC)NC(=O)[C@H]([C@@H](C)CC)NC(=O)[C@@H]2CCCN2C(=O)[C@@H]2CCCN2C(=O)[C@H](CC(C)(C)C)NC(=O)[C@H](CO)NC(=O)[C@H](CCCNC(=N)N)NC(=O)[C@H](CO)NC1=O) [((N-Me)A)-IC+SRS-((tBu)A)-PPI-(Pen)+IP-NH2] | 3.2 | 24
[2‑(Diethylamino)acetyl]ICSRS[tBuAla]PPI[Pen]IPD-NH2 (disulfide 3-11) [(2-(Diethylamino)acetyl)-IC+SRS-((tBu)A)-PPI-(Pen)+IPD-NH2] | 3.5 | 98
[NMeA]ICSRSLP[Oic]I[Pen]IPE-NH2 (disulfide 3-11; N-terminus assumed; SMILES CC[C@H](C)[C@H](NC(=O)[C@H](C)NC)C(=O)N[C@H]1CSSC(C)(C)[C@@H](C(=O)N[C@H](C(=O)N2CCC[C@H]2C(=O)N[C@@H](CCC(=O)O)C(N)=O)[C@@H](C)CC)NC(=O)[C@H]([C@@H](C)CC)NC(=O)[C@@H]2C[C@@H]3CCCC[C@@H]3N2C(=O)[C@@H]2CCCN2C(=O)[C@H](CC(C)C)NC(=O)[C@H](CO)NC(=O)[C@H](CCCNC(=N)N)NC(=O)[C@H](CO)NC1=O) [((N-Me)A)-IC+SRSLP-(Oic)-I-(Pen)+IPE-NH2] | 3.3 | 200
[NMeA]ICSRSLP[Oic]I[Pen]IP-NH2 (disulfide 3-11; N-terminus assumed; SMILES CC[C@H](C)[C@H](NC(=O)[C@H](C)NC)C(=O)N[C@H]1CSSC(C)(C)[C@@H](C(=O)N[C@H](C(=O)N2CCC[C@H]2C(N)=O)[C@@H](C)CC)NC(=O)[C@H]([C@@H](C)CC)NC(=O)[C@@H]2C[C@@H]3CCCC[C@@H]3N2C(=O)[C@@H]2CCCN2C(=O)[C@H](CC(C)C)NC(=O)[C@H](CO)NC(=O)[C@H](CCCNC(=N)N)NC(=O)[C@H](CO)NC1=O) [((N-Me)A)-IC+SRSLP-(Oic)-I-(Pen)+IP-NH2] | 3.4 | 99
[NMeA]ICSRSLP[Oic]I[Pen]I-OH (disulfide 3-11; N-terminus assumed; SMILES CC[C@H](C)[C@H](NC(=O)[C@H]1NC(=O)[C@H]([C@@H](C)CC)NC(=O)[C@@H]2C[C@@H]3CCCC[C@@H]3N2C(=O)[C@@H]2CCCN2C(=O)[C@H](CC(C)C)NC(=O)[C@H](CO)NC(=O)[C@H](CCCNC(=N)N)NC(=O)[C@H](CO)NC(=O)[C@@H](NC(=O)[C@@H](NC(=O)[C@H](C)NC)[C@@H](C)CC)CSSC1(C)C)C(=O)O) [((N-Me)A)-IC+SRSLP-(Oic)-I-(Pen)+I-OH] | 3.4 | 410
[2‑(Piperidin)acetyl]ICSRS[tBuAla]PPI[Pen]IPD-NH2 (disulfide 3-11) [(2-(Piperidin)acetyl)-IC+SRS-((tBu)A)-PPI-(Pen)+IPD-NH2] | 3.3 | 71
